Literature values, collected in patent US20070231406A1, “Use of gallium to treat biofilm-associated infections” (priority 2006, published 2007).

Tested on: Pseudomonas aeruginosa biofilm
Details: 20 μg/ml lactoferrin

B1: lactoferrin (protein, UniProt P02788 20-710, looked up)
Lactotransferrin: GRRRSVQWCAVSQPEATKCFQWQRNMRKVRGPPVSCIKRDSPIQCIQAIAENRADAVTLDGGFIYEAGLAPYKLRPVAAEVYGTERQPRTHYYAVAVVKKGGSFQLNELQGLKSCHTGLRRTAGWNVPIGTLRPFLNWTGPPEPIEAAVARFFSASCVPGADKGQFPNLCRLCAGTGENKCAFSSQEPYFSYSGAFKCLRDGAGDVAFIRESTVFEDLSDEAERDEYELLCPDNTRKPVDKFKDCHLARVPSHAVVARSVNGKEDAIWNLLRQAQEKFGKDKSPKFQLFGSPSGQKDLLFKDSAIGFSRVPPRIDSGLYLGSGYFTAIQNLRKSEEEVAARRARVVWCAVGEQELRKCNQWSGLSEGSVTCSSASTTEDCIALVLKGEADAMSLDGGYVYTAGKCGLVPVLAENYKSQQSSDPDPNCVDRPVEGYLAVAVVRRSDTSLTWNSVKGKKSCHTAVDRTAGWNIPMGLLFNQTGSCKFDEYFSQSCAPGSDPRSNLCALCIGDEQGENKCVPNSNERYYGYTGAFRCLAENAGDVAFVKDVTVLQNTDGNNNEAWAKDLKLADFALLCLDGKRKPVTEARSCHLAMAPNHAVVSRMDKVERLKQVLLHQQAKFGRNGSDCPDKFCLFQSETKNLLFNDNTECLARLHGKTTYEKYLGPQYVAGITNLKKCSTSPLLEACEFLRK
Pseudomonas aeruginosa biofilm formation: inhibited
